Target: T1, intestinal guanylate cyclase (Homo sapiens, UniProt P25092)
T1 construct: host or cells: T84 human colon carcinoma cells
Test: T84 cell bioassay: intracellular cyclic GMP levels
Format: cell-based
Settings: compared with STa; T84 cells, FIG. 3a
Protocol: a) Activity in the T84 cell bioassay. As determined by analysis of the effects of the peptides on intracellular cyclic GMP levels.
Cell Culture: A cultured human colon carcinoma cell line (T84) was obtained from the American Type Culture Collection (Rockville, Md.) at passage 52. Cells were grown to confluency in 24-well culture plates with a 1:1 mixture of Ham's F12 medium and Dulbecco's modified Eagle's medium (DMEM), supplemented with 10% fetal calf serum, 100 IU/ml penicillin, and 100 μg/ml streptomycin. Cells were used at passages 54-60.
Cyclic GMP determination: Monolayers of T84 cells in 24-well plates were washed twice with 1 ml/well DMEM, then incubated at 37 C. for 10 min with 0.5 ml DMEM containing 1 mM isobutylmethylxanthine (IBMX), a cyclic nucleotide phosphodiesterase inhibitor. Agents and fractions were then added for the indicated time as described in the results section. The media was then aspirated and the reaction terminated by the addition of ice cold 0.5 ml of 0.1N HCl. Aliquots were then evaporated to dryness under nitrogen and then resuspended in 5 mM sodium acetate buffer, pH 6.4. The samples were subsequently measured for cyclic GMP by RIA as described by Steiner et al. (16).

T1 sequence (P25092 24-1073): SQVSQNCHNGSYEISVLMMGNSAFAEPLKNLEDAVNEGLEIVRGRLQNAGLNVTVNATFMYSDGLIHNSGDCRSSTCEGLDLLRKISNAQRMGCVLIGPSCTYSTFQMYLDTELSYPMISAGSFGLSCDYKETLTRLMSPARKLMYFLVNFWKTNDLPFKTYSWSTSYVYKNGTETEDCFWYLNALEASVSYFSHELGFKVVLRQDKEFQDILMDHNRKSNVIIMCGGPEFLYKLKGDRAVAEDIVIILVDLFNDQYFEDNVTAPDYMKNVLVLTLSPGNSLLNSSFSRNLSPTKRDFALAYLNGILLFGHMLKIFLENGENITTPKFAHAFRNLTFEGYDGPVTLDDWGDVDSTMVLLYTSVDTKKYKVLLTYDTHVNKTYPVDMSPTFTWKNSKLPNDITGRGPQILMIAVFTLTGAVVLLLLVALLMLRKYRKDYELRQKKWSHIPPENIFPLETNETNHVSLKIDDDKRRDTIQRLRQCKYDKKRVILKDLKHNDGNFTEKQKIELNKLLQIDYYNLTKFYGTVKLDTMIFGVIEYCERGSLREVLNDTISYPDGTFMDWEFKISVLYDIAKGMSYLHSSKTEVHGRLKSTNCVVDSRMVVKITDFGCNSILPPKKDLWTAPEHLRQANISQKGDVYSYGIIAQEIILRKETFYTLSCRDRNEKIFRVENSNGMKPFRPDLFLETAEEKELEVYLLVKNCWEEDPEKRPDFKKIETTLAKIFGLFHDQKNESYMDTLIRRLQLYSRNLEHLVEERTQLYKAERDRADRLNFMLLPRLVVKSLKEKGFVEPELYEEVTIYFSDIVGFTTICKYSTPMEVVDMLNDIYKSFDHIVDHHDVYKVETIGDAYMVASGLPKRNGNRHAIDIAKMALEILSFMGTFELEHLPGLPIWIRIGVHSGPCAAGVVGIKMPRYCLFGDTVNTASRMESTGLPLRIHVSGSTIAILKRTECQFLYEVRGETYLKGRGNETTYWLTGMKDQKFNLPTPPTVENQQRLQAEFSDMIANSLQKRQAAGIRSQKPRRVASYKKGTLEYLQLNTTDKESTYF

B1: rat guanylin: 15 amino acid rat guanylin peptide; shares 14 of 15 amino acids with human guanylin (peptide)
peptide: MNAWLLSVLCLLGALAVLVEGVTVQDGDLSFPLESVKQLKHLREVQEPTLMSHKKFALRLPKPVAPELCSQSAFPEALRPLCEKPNAEEILQRLEAIAQDPNTCEICAYAACTGC
relative potency to activate intestinal guanylate cyclase (T84 cell cyclic GMP): about one order of magnitude less potent than STa
